Target: WT EGFR kinase (residues 696-1022) (human, UniProt P00533 696-1022)
Experiment: kinase inhibition kinetics

B1: unphosphorylated Mig6 segment 1+2 (residues 330-399) (domain or fragment, human, UniProt Q9UJM3 330-399, looked up)
chain: SRTPSPKSLPSYLNGVMPPTQSFAPDPKYVSSKALQRQNSEGSASKVPCILPIIENGKKVSSTHYYLLPE
Ki: 0.01 to 0.02 µM

From publication PMC4790445 (Nature structural & molecular biology, 2015)
